B1: Snf12 (natural protein, S. cerevisiae, UniProt P53628 1-566, looked up)
chain: MSKVMKPSNGKGSRKSSKAATPDTKNFFHAKKKDPVNQDKANNASQITPTVPHSHPSDMVIPDHLAELIPELYSFQQLVDSEKRLDHFIHLRNLHMKRMVAQWERSKLSQEFLYPHLNFPNVKFLRIFISNVSENQPWQMDTNNEADLMALENATWTMRIEGRLLDNVQANDPAREKFSSFIESIVVDFKNKENDNVPSTKFNAAPEENATEGPSDKKLNLNLPLQFSLPNGDNSTTTNTDQNNATMGEETAKKDMSSTTPKLESVKWQYDPNNPVDFDGLDIKRVGSENVECTISILRKSSPEEPFMSYSPQLTAIIGLKSGTSHDAIFSIYKYIHLNELLTNDESAFENLMGNRNNHNSNTSTSKMLDAASSQVSIVKLDTQLITLLPSSLKESSPDTMKLTDLLSLINSTHLLPLQPIEIDYTVRVDKASTYGELVLDIEVPDVNALKFNNTQRESQIGAAELNENARELEQIKPKIALQDKEITSVLSNLHESNKRYRFFKKISEDPVKALNECIASTSNALKVLSGDEGYNEDMVRRANFYKENEAMLRENIEVILSNGRM
notes: Snf12, subunit of the S. cerevisiae Swi/Snf complex; endogenous protein; Part of the SWIB domain was homology modelled; For cryo-EM the complex was cross-linked with 1 mM BS3; source: endogenous, S. cerevisiae; purified as part of the Swi/Snf complex through Snf6-3Flag (ANTI-FLAG M2 resin, Superose 6)
B2: Swi1 (natural protein, S. cerevisiae, UniProt P09547 1-1314, looked up)
chain: MDFFNLNNNNNNNNTTTTTTTTNNNNTNNNNTNNNNNPANNTNNNNSTGHSSNTNNNTNNNNTNTGASGVDDFQNFFDPKPFDQNLDSNNNNSNSNNNDNNNSNTVASSTNFTSPTAVVNNAAPANVTGGKAANFIQNQSPQFNSPYDSNNSNTNLNSLSPQAILAKNSIIDSSNLPLQAQQQLYGGNNNNNSTGIANDNVITPHFITNVQSISQNSSSSTPNTNSNSTPNANQQFLPFNNSASNNGNLTSNQLISNYAASNSMDRSSSASNEFVPNTSDNNNNSNNHNMRNNSNNKTSNNNNVTAVPAATPANTNNSTSNANTVFSERAAMFAALQQKQQQRFQALQQQQQQQQNQQQQNQQPQQQQQQQQNPKFLQSQRQQQQRSILQSLNPALQEKISTELNNKQYELFMKSLIENCKKRNMPLQSIPEIGNRKINLFYLYMLVQKFGGADQVTRTQQWSMVAQRLQISDYQQLESIYFRILLPYERHMISQEGIKETQAKRIFLQQFLQELLKKVQQQQQAAALANANNNINSASSAPTPAAPGASVPATAAPGTEAGIVPVSANTPKSLNSNININVNNNNIGQQQVKKPRKQRVKKKTKKELELERKEREDFQKRQQKLLEDQQRQQKLLLETKLRQQYEIELKKLPKVYKRSIVRNYKPLINRLKHYNGYDINYISKIGEKIDSNKPIFLFAPELGAINLHALSMSLQSKNLGEINTALNTLLVTSADSNLKISLVKYPELLDSLAILGMNLLSNLSQNVVPYHRNTSDYYYEDAGSNQYYVTQHDKMVDKIFEKVNNNATLTPNDSNDEKVTILVDSLTGNQLPTPTPTEMEPDLDTECFISMQSTSPAVKQWDLLPEPIRFLPNQFPLKIHRTPYLTSLKKIKDEIDDPFTKINTRGAEDPKVLINDQLSTISMILRNISFSDNNSRIMSRNFYLKRFISDLLWLVLIHPENFTCNRKILNFKKDLVIVLSNISHLLEIASSIDCLLILILVISFGQPKLNPMASSSSFGSESLTFNEFQLQWGKYQTFGVDILAKLFSLEKPNLNYFKSILLNKNTGNNLYDRNSNNNHKDKKLLRRLLNLYNDNNKNNNNRHNLLNDVVSFLFSAIPLQQVLSQSADPSLLIDQFSPVISQSLTSILVIVQKILPLSNEVFEISENNSDSNSNNNGNKDSSFNFNKNLPFVWLSSEENIGSGLLKLSEIILNINNSTSKNTLLQQQNYSKVLLPSINISCVQLIKCLVEKSICFENCLNNDPEILKKIASIPNLFPTDLEIFQLFTNPSVDIQIINQYQLLYNLKNDILTNLE
notes: Swi1, subunit of the S. cerevisiae Swi/Snf complex; endogenous protein; Only part of the chain is modelled (C-terminus with seven ARM repeats, α1, β1); For cryo-EM the complex was cross-linked with 1 mM BS3; source: endogenous, S. cerevisiae; purified as part of the Swi/Snf complex through Snf6-3Flag (ANTI-FLAG M2 resin, Superose 6)
B3: Snf6 with a C-terminal 3-Flag tag (natural protein, S. cerevisiae, UniProt P18888 1-332, looked up)
chain: MGVIKKKRSHHGKASRQQYYSGVQVGGVGSMGAINNNIPSLTSFAEENNYQYGYSGSSAGMNGRSLTYAQQQLNKQRQDFERVRLRPEQLSNIIHDESDTISFRSNLLKNFISSNDAFNMLSLTTVPCDRIEKSRLFSEKTIRYLMQKQHEMKTQAAELQEKPLTPLKYTKLIAAAEDGSRSTKDMIDAVFEQDSHLRYQPDGVVVHRDDPALVGKLRGDLREAPADYWTHAYRDVLAQYHEAKERIRQKEVTAGEAQDEASLQQQQQQDLQQQQQVVTTVASQSPHATATEKEPVPAVVDDPLENMFGDYSNEPFNTNFDDEFGDLDAVFF
notes: Snf6, subunit of the S. cerevisiae Swi/Snf complex; expressed from its own locus; Bait of the purification; For cryo-EM the complex was cross-linked with 1 mM BS3; source: endogenous locus tagged by homologous recombination, S. cerevisiae; purified (ANTI-FLAG M2 resin, FLAG peptide elution, Superose 6); not shown: 3-Flag, C-terminal, kept
B4: Snf5 (natural protein, S. cerevisiae, UniProt P18480 1-905, looked up)
chain: MNNQPQGTNSVPNSIGNIFSNIGTPSFNMAQIPQQLYQSLTPQQLQMIQQRHQQLLRSRLQQQQQQQQQTSPPPQTHQSPPPPPQQSQPIANQSATSTPPPPPAPHNLHPQIGQVPLAPAPINLPPQIAQLPLATQQQVLNKLRQQAIAKNNPQVVNAITVAQQQVQRQIEQQKGQQTAQTQLEQQRQLLVQQQQQQQLRNQIQRQQQQQFRHHVQIQQQQQKQQQQQQQHQQQQQQQQQQQQQQQQQQQQQQQQQQQQQQQQQQQQQGQIPQSQQVPQVRSMSGQPPTNVQPTIGQLPQLPKLNLPKYQTIQYDPPETKLPYPTYWSDKKADTDTLLYEQIIQRDKINKYSLIRETNGYDPFSIYGFSNKEYISRLWHTLKYYQDLKNTRMKSITSTSQKIPSASIWGNGYSGYGNGITNTTTRVIPQVEVGNRKHYLEDKLKVYKQAMNETSEQLVPIRLEFDQDRDRFFLRDTLLWNKNDKLIKIEDFVDDMLRDYRFEDATREQHIDTICQSIQEQIQEFQGNPYIELNQDRLGGDDLRIRIKLDIVVGQNQLIDQFEWDISNSDNCPEEFAESMCQELELPGEFVTAIAHSIREQVHMYHKSLALLGYNFDGSAIEDDDIRSRMLPTITLDDVYRPAAESKIFTPNLLQISAAELERLDKDKDRDTRRKRRQGRSNRRGMLALSGTSASNTSMNGVHNTVAAGNASSLPPGEILLPDIADIPRTFRTPVPSTLMPGGVDVGPSVESYELRNTTTYKSRPDRPKPVSPPCYIIDHIPGHSLLLSIKLPGKVNTKEEFAAAPNDTSSGTNAMLPSPESLKTKLNSNIRAGVTIPSIPNPIANHTVTNSPNPTLQPVIPGGAASKSVPTPSLPIAPPVAPHDSEATLLTNSNNGSSNNNTQNT
notes: Snf5, subunit of the S. cerevisiae Swi/Snf complex; endogenous protein; For cryo-EM the complex was cross-linked with 1 mM BS3; source: endogenous, S. cerevisiae; purified as part of the Swi/Snf complex through Snf6-3Flag (ANTI-FLAG M2 resin, Superose 6)

What all share (test): cryo-EM structure; endogenous Swi/Snf complex purified as a whole through Snf6-3Flag, nucleosome-free, cross-linked with 1 mM BS3, 20 mM HEPES pH 7.4, 350 mM NaCl; 4.1 Å average, 2.9 Å for the base module
Holding throughout (details): both partners purified

The assay “Swi1” has as its target B2.
The target of the next assay is T1, Swi3 (S. cerevisiae, UniProt P32591 1-825).
T1 construct: Swi3, subunit of the S. cerevisiae Swi/Snf complex; endogenous protein; two copies (chains A and B) in the model; also called Swi3A; Swi3B; source: endogenous, S. cerevisiae; purified as part of the Swi/Snf complex through Snf6-3Flag (ANTI-FLAG M2 resin, Superose 6)
T1 sequence (looked up): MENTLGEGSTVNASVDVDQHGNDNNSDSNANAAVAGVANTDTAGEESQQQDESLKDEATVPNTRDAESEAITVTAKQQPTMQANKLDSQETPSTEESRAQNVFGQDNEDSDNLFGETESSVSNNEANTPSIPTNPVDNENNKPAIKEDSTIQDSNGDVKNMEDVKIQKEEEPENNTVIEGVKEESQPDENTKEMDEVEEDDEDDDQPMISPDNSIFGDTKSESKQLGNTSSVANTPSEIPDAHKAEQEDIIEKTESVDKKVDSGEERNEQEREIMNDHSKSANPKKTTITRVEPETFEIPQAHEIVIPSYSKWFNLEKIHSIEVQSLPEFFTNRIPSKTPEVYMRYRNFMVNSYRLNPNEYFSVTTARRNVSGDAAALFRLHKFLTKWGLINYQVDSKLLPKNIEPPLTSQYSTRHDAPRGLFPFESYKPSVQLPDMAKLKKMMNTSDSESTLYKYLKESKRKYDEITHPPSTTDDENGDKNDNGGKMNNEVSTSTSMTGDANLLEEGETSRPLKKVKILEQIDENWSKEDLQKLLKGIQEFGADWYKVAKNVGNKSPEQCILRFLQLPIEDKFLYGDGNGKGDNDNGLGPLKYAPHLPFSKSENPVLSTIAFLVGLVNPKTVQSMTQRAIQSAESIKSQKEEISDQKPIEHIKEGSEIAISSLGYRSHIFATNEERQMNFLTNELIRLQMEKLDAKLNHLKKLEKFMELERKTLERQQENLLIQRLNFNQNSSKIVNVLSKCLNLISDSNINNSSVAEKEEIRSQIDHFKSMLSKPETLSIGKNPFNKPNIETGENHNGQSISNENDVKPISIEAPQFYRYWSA

In another assay the target is T2, Snf2 (S. cerevisiae, UniProt P22082 1-1703).
T2 construct: Snf2, ATPase-containing subunit of the S. cerevisiae Swi/Snf complex; endogenous protein; Only the preHSA domain and the HSA helix are seen in the map; the ATPase domain is absent from the structure; For cryo-EM the complex was cross-linked with 1 mM BS3; source: endogenous, S. cerevisiae; purified as part of the Swi/Snf complex through Snf6-3Flag (ANTI-FLAG M2 resin, Superose 6)

The text below walks through data of article PMC7340788, “Structure of the yeast Swi/Snf complex in a nucleosome free state” (Nature Communications, 2020).

T2 sequence (P22082 whole entry, the tested form may be a part): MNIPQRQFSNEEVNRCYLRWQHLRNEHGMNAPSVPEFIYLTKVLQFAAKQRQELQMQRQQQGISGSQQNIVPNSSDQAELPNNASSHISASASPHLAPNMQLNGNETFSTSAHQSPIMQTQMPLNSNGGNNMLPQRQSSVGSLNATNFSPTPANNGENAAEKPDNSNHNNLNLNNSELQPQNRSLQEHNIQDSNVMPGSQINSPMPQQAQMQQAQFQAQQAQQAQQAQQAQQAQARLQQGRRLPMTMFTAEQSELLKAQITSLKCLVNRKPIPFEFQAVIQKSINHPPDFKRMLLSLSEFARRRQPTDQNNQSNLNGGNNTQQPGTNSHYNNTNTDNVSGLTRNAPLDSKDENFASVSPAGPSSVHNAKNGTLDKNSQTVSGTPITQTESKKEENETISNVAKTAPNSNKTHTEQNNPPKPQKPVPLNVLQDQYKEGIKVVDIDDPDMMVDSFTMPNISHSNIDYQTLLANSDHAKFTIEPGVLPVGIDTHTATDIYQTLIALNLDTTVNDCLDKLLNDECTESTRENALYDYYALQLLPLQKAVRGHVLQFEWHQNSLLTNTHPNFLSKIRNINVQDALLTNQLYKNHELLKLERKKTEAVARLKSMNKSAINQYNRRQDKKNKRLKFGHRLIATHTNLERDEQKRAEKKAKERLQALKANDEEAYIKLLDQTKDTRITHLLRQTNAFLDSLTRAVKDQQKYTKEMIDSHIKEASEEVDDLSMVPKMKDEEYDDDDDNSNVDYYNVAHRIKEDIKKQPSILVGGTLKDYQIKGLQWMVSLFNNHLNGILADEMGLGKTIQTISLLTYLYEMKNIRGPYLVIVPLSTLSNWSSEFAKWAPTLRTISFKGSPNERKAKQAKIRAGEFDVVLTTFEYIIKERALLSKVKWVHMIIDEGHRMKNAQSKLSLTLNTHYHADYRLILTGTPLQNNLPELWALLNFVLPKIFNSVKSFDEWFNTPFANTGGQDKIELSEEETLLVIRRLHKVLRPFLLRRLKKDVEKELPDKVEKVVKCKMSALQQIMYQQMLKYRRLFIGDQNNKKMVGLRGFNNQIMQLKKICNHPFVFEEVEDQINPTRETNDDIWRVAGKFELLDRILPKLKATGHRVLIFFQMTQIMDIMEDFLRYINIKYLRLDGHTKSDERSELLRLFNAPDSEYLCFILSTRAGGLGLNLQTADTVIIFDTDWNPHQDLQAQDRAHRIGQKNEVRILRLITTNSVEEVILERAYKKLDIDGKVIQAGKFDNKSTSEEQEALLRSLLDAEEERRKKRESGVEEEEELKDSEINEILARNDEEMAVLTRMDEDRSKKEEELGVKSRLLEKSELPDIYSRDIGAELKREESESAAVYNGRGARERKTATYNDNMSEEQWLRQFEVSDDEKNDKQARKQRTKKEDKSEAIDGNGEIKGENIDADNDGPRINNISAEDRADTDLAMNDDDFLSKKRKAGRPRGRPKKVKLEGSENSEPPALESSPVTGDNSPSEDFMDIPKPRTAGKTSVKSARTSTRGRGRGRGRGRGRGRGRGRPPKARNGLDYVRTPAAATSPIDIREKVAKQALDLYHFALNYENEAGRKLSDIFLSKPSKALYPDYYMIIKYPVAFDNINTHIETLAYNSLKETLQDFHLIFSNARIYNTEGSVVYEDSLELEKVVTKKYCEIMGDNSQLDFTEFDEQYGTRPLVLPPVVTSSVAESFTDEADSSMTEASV

As to B1, the binding result with Swi1, with Swi3 and with Snf2 was “binds” in each case.

As to B2, the binding result in the assay with Snf2 is “binds”.

B3: the binding result with Swi1 and with Snf2 was “binds” each time.

In the case of B4, the binding result in the assay with Swi1 and in the assay with Snf2 was “binds” throughout.
